Key:
Assay in all cases: cell-based or functional assay
[1] = molecular target: 24/008 envelope protein (HIV-1)
[2] = molecular target: 93BR029 envelope protein (HIV-1)
[3] = molecular target: VI843 envelope protein (HIV-1)
[4] = molecular target: 14/00/4 envelope protein (HIV-1)
[5] = molecular target: GXE-14 envelope protein (HIV-1)
[6] = molecular target: 24/00/4 envelope protein (HIV-1)
[7] = molecular target: VI1273 envelope protein (HIV-1)
[8] = molecular target: LY109 envelope protein (HIV-1)
[9] = molecular target: VI423 envelope protein (HIV-1)
[10] = molecular target: R2 envelope protein (HIV-1)
[11] = molecular target: VI1249 envelope protein (HIV-1)
[12] = molecular target: CA1 envelope protein (HIV-1)
[13] = molecular target: MACS#4 envelope protein (HIV-1)
[14] = molecular target: VI1399 envelope protein (HIV-1)
[15] = molecular target: VI1793 envelope protein (HIV-1)
[16] = molecular target: NYU1423 envelope protein (HIV-1)
[17] = molecular target: LY109(N662T) mutant Env (HIV-1)
[18] = molecular target: NYU1423 (T662) mutant Env (HIV-1)
[19] = molecular target: NYU1026 (T662) mutant Env (HIV-1)
[20] = molecular target: 14/00/4 (A662) mutant Env (HIV-1)
[21] = molecular target: NYU1026 envelope protein (HIV-1)

Substance	neutralization, 50% inhibitory concentration [1] [µg/mL]	neutralization, 50% inhibitory concentration [2] [µg/mL]	neutralization, 50% inhibitory concentration [3] [µg/mL]	neutralization, 50% inhibitory concentration [4] [µg/mL]	neutralization, 50% inhibitory concentration [5] [µg/mL]	neutralization, 50% inhibitory concentration [6] [µg/mL]	neutralization, 50% inhibitory concentration [7] [µg/mL]	neutralization, 50% inhibitory concentration [8] [µg/mL]	neutralization, 50% inhibitory concentration [9] [µg/mL]	neutralization, 50% inhibitory concentration [10] [µg/mL]	neutralization, 50% inhibitory concentration [11] [µg/mL]	neutralization, 50% inhibitory concentration [12] [µg/mL]	neutralization, 50% inhibitory concentration [13] [µg/mL]	neutralization, 50% inhibitory concentration [14] [µg/mL]	neutralization, 50% inhibitory concentration [15] [µg/mL]	neutralization, 50% inhibitory concentration [16] [µg/mL]	also measured
2G12 (antibody)	0.78	18.8	6.25	> 50	> 50	> 50	9.38	> 25	25	> 50	> 50	> 50	4.69	50	6.25	25	–
Mab 2F5 (antibody)	> 50	0.39	> 50	< 0.39	3.13	1.17	3.13	6.64	1.96	0.78	0.98	> 12.5	3.13	1.56	1.17	25	Mab ID50 (neutralization) [17]: 0.39 µg/mL; Mab ID50 (neutralization) [18]: 12.5 µg/mL; neutralization ID50 [18]: 10.4 µg/mL; neutralization ID50 [4]: 0.45 µg/mL; Mab ID50 (neutralization) [8]: 3.1 µg/mL; neutralization ID50 [19]: 0.31 µg/mL; neutralization ID50 [20]: 6.25 µg/mL; neutralization ID50 [21]: 3.13 µg/mL; Mab ID50 (neutralization) [16]: 25 µg/mL; neutralization ID50 [16]: 17.7 µg/mL
Mab 4E10 (antibody)	25	0.39	12.5	1.96	13.3	3.91	6.25	18.8	6.25	3.13	0.98	12.5	7.82	3.13	3.13	25	Mab ID50 (neutralization) [17]: 0.78 µg/mL; Mab ID50 (neutralization) [18]: 12.5 µg/mL; neutralization ID50 [4]: 0.9 µg/mL; Mab ID50 (neutralization) [8]: 12.5 µg/mL; neutralization ID50 [19]: 0.78 µg/mL; neutralization ID50 [20]: 9.34 µg/mL; neutralization ID50 [21]: 10.4 µg/mL; Mab ID50 (neutralization) [16]: 25 µg/mL
X5 (antibody)	> 25	< 25	> 25	> 25	> 25	> 25	> 25	> 25	< 6.25	< 6.25	25	> 25	25	< 25	> 25	25	–
Z13 (antibody)	> 25	> 25	> 25	> 25	> 25	> 25	> 25	> 25	> 25	> 25	> 25	> 25	> 25	> 25	> 25	–	–
huMab IgG1 b12 (antibody)	> 100	> 100	50	> 100	25	> 100	9.38	100	31.2	25	1.56	> 100	1.56	0.78	> 100	> 100	–
two-domain soluble CD4 (from UniProt P01730 26-208) (receptor)	4.69	< 0.39	> 50	0.59	9.34	> 50	> 50	> 25	50	0.78	3.13	< 0.39	1.56	6.25	25	25	–
